# Results published in patent CN116789813A.
# B1: 全人源Hla单克隆抗体Hla-38 (antibody, V domains shown)
# VH: QVQLLESGGGVVQPGRSLRLSCIVSGFDLNSFAMHWVRQPPGKGLEWVAVIWHDGSERFYAASVKGRFTISRDTSRNTLFLQMNSLRVEDTAVYYCAKSGDYYENSGYFGSWGQGALVTVSS
# VL: ELVLTQSPATLSVSPGERATLSCRASQSVGNDLAWYQQKPGQAPRLLIYGASTRATGIPARFSGSGFGTEFTLTISSLQSEDFAVYYCQQYNNWWTFGQGTKVDIK
# Molecular target: 突变型金黄色葡萄球菌α-溶血素(mHla), Hla(H35L) (Staphylococcus aureus (strain MRSA 252))
# Test: ELISA, mHla coated at 2μg/mL, anti-human IgG Fab-HRP detection
binder,measurement,value
B1,EC50,0.849 µg/mL
